{"source": "patent US12006343B2", "about": "“C4BP-based compounds for treating immunological diseases” (FUNDACIO INSTITUT D'INVESTIGACIO BIOMEDICA DE BELLVITGE …, priority 2017, dated 2024)", "molecules": {"B1": {"name": "C4BP: human C4b-binding protein as used by Blom et al. 2009, intraperitoneally in mice (protein, UniProt P04003 49-597; P20851 18-252, looked up)", "C4b-binding protein alpha …": "NCGPPPTLSFAAPMDITLTETRFKTGTTLKYTCLPGYVRSHSTQTLTCNSDGEWVYNTFCIYKRCRHPGELRNGQVEIKTDLSFGSQIEFSCSEGFFLIGSTTSRCEVQDRGVGWSHPLPQCEIVKCKPPPDIRNGRHSGEENFYAYGFSVTYSCDPRFSLLGHASISCTVENETIGVWRPSPPTCEKITCRKPDVSHGEMVSGFGPIYNYKDTIVFKCQKGFVLRGSSVIHCDADSKWNPSPPACEPNSCINLPDIPHASWETYPRPTKEDVYVVGTVLRYRCHPGYKPTTDEPTTVICQKNLRWTPYQGCEALCCPEPKLNNGEITQHRKSRPANHCVYFYGDEISFSCHETSRFSAICQGDGTWSPRTPSCGDICNFPPKIAHGHYKQSSSYSFFKEEIIYECDKGYILVGQAKLSCSYSHWSAPAPQCKALCRKPELVNGRLSVDKDQYVEPENVTIQCDSGYGVVGPQSITCSGNRTWYPEVPKCEWETPEGCEQVLTGKRLMQCLPNPEDVKMALEVYKLSLEIEQLELQRDSARQSTLDKEL", "C4b-binding protein beta chain": "SDAEHCPELPPVDNSIFVAKEVEGQILGTYVCIKGYHLVGKKTLFCNASKEWDNTTTECRLGHCPDPVLVNGEFSSSGPVNVSDKITFMCNDHYILKGSNRSQCLEDHTWAPPFPICKSRDCDPPGNPVHGYFEGNNFTLGSTISYYCEDRYYLVGVQEQQCVDGEWSSALPVCKLIQEAPKPECEKALLAFQESKNLCEAMENFMQQLKESGMTMEELKYSLELKKAELKAKLL"}, "B2": {"name": "rC4BP(β−): recombinant C4BP isoform lacking the β-chain, transiently produced in HEK293 cells (Expi293 cells) (protein, UniProt P04003 49-597, looked up)", "C4b-binding protein alpha …": "B1 C4b-binding protein alpha …", "modifications": "alpha-chain-only isoform, recombinant"}}, "key": {"[1]": {"conditions": "mouse, in vivo, cited from earlier work"}, "lupus-prone NZBWF1 mice [2]": {"system": "lupus-prone NZBWF1 mice", "experiment": "Kaplan-Meier survival in spontaneous SLE mouse model NZBWF1", "type": "in vivo", "conditions": "for mice still alive at the end of the study: 330 days", "method": "NZBWF1/J mice develop an autoimmune disease resembling human systemic lupus erythematosus. […] The animals were maintained under standard laboratory conditions, at 20-24° C. and 40-70% relative humidity, with 12-hour fluorescent light/12-hour dark cycle. They were feed standard diet and tap water ad libitum.\n(§1) Both IP and SC administrations for C4BP(β−), CYP and PBS (150 μl/each) were performed with a 25-gauge needle during 30 s, after rinsing the skin with 70% ethanol.\n(§2) The detailed administration schedule was as follows (Table 5):\n(§3) One-way analysis of variance (ANOVA) with post hoc tests was performed to compare proteinuria throughout the follow up. Survival data were analyzed using Kaplan-Meier curves and long-rank test. P value<0.05 was considered significant. Data are expressed as mean±SEM."}, "[3]": {"system": "human monocyte-derived DCs", "experiment": "Immunomodulatory activity over human monocyte-derived DCs: CD83/CD86 surface expression by flow cytometry after LPS maturation", "type": "cell-based", "conditions": "FIG. 4", "method": "In Vitro Functional Assessment of the Immunomodulatory Activity of Full-Length C4BP(β−) and C4BP(β−) Variants Over DCs\nThe inventors used for the in vitro study both C4BP(β+) (WT) and recombinant C4BP(β−) isoforms, and the above-referred mutants or variants: Mutant 1 and Mutant 2. C4BP(β+) isoforms refer to the major C4BP α7β1 plus the minor C4BP α6β1 isoforms (both in complex with ProS) purified from pooled human plasma.\nRPMI 1640 was supplemented with 100 μg/ml of streptomycin, 100 IU/ml of penicillin, 2 mM L-glutamine (all from Invitrogen, Carlsbad, CA) and 10% heat-inactivated fetal bovine serum (Linus, Cultek, Spain) (complete medium), unless otherwise stated.\nPeripheral blood mononuclear cells (PBMCs) were obtained from buffy coat preparations collected from healthy donors from the Blood and Tissue Bank (Barcelona, Spain) after Ficoll-Paque™ density centrifugation (GE Healthcare Bio-Sciences AB; Uppsala, Sweden). For surface phenotype determination, monocytes were plated at 1×10^6 cells/ml in 60 mm culture plates (Corning, Spain), in RPMI 1640 medium without serum, and allowed to adhere for 2 h at 37° C. in 5% CO2. The non-adherent cells were removed by washing in PBS.\nMonocyte-derived DCs were generated supplementing the monocyte cultures with complete RPMI 1640 medium plus GM-CSF (800 UI/ml) and IL-4 (500 UI/ml) (both from Gentaur, Kampenhout, Belgium) at day 0 and day 3 of culture. For DC maturation, at day 5 iDCs were further stimulated for 48 h with 5 μg/ml LPS (Escherichia coli 055.B5, Sigma L2880, Copenhagen, Denmark).\nStaining using the fluorescent dye 7-amino-actinomycin D (7-AAD) (BD Pharmigen) and flow cytometry analysis was employed to assess the viability status of C4BP-treated and untreated DCs.\nCell surface phenotypes were analyzed by flow cytometry using the following mAbs: FITC-conjugated anti-CD83 (HB15a) and PE-conjugated anti-CD86 (HA5.2B7) (all from Beckman-Coulter). The respective isotype controls FITC-conjugated anti-IgG2b (H2) and PE-conjugated anti-IgG2b (H2), were from the same commercial sources. After washing with PBS, cells were subsequently stained with 3 μl mAb/10^5 cells in 100 μl of FACS buffer (PBS containing 1% BSA and 0.1% sodium azide) for 20 min at room temperature. To exclude dead cells and debris, DCs were gated according to forward scatter (FSC) and side scatter (SSC) parameters. Stained cells were analyzed using a FACSCalibur (Becton Dickinson, Franklin Lakes, NJ) equipped with CellQuestPro software (Becton Dickinson).\nIn Vitro Functional Assessment of C4BP(β−) Immunomodulatory Activity Over DCs\nThe inventors used for the in vitro study both C4BP(+) and C4BP(β−) isoforms. C4BP(3+) isoforms refer to the major C4BP α7β1 plus the minor C4BP α6β1 isoforms (both in complex with ProS) purified from pooled human plasma, as previously described (Dahlbäck B. 1983. Biochem J., 209:847-56)."}, "lupus-prone NZBWF1 mice [4]": {"system": "lupus-prone NZBWF1 mice", "experiment": "Renal function (24 h proteinuria) in spontaneous SLE mouse model NZBWF1", "type": "in vivo", "conditions": "for delay in the onset of proteinuria: vs PBS-treated control", "method": "Mice, Study Design and Follow Up\nNZB/NZW F1 or NZBWF1/J (Charles-River), NZB/NZW F1 (Jackson, code 100008) are a hybrid cross between NZB/B1NJ (Jackson, code 000684) Female x NZW/LacJ (Jackson, code 001058) Male. NZBWF1/J mice develop an autoimmune disease resembling human systemic lupus erythematosus. The inventors used 58 females (30-35 g/each) aged 15 weeks for the study (4-5 animals per cage). The animals were maintained under standard laboratory conditions, at 20-24° C. and 40-70% relative humidity, with 12-hour fluorescent light/12-hour dark cycle. They were feed standard diet and tap water ad libitum. […]\nDose Selection and Administration.\nThe selection of the C4BP(β−) dose for in vivo administration was based in previous studies employing complement-related proteins in immune-inflammatory pathologies. Blom et al. (Blom et al. 2009. Ann. Rheum. Dis., 68:136-42) used the C4BP isoform lacking β chain in experimental collagen-induced arthritis (CIA) and collagen antibody-induced arthritis (CAIA) mice to investigate the influence of complement activity in the treatment of rheumatoid arthritis. These authors administered intraperitoneally C4BP (2 mg/mouse) using a multiple dose-regimen once every two days in preventive and therapeutic experiments. Thus, in the current study, C4BP(β−) was administered both intraperitoneally (IP) and subcutaneously (SC) into NZBWF1 mice for three months (between six and nine months of age).\nAlperovich et al (Alperovich et al. 2007. Lupus, 16:18-24) administered cyclophosphamide (CYP) to NZBWF1 mice at 50 mg/kg IP every 10 days.\nas §1, §2\nBody weight was determined twice monthly from the beginning to the end of follow-up. Mice were placed in metabolic cages to collect 24 h urine specimens before the onset of treatment and monthly thereafter. Blood was obtained from the tail vein at monthly intervals.\nRenal Function Analysis: Proteinuria\n24 h urinary protein was determined by pyrogallol red (Olympum Autoanalyzer AU400, Hamburg, Germany) in the Veterinary Clinical Biochemistry Laboratory from Universitat Autonoma de Barcelona.\nas §3"}, "[5]": {"conditions": "IP, 5 μg/mouse once every two weeks"}, "[6]": {"conditions": "IP, 50 μg/mouse once every two weeks"}, "[7]": {"conditions": "IP, 500 μg/mouse once every two weeks"}}, "note": "“Also recorded” adds a separate entry of the source.", "data": [{"molecule": "B1", "values": [{"measurement": "initial amount remaining in the circulation", "setting": "[1]; ip", "result": 3, "unit": "%"}, {"measurement": "clearance from the circulation", "setting": "[1]", "result": "cleared fast"}]}, {"molecule": "B2", "values": [{"measurement": "survival", "setting": "lupus-prone NZBWF1 mice [2]; IP, 5 μg once every two weeks, all mice died at end of study (330 days)", "result": "performed similarly to the control PBS-treated group"}, {"measurement": "mice still alive at the end of the study", "setting": "lupus-prone NZBWF1 mice [2]; IP, 50 μg once every two weeks", "result": "20-30%"}, {"measurement": "mice still alive at the end of the study", "setting": "lupus-prone NZBWF1 mice [2]; IP, 500 μg once every two weeks", "result": "20-30%"}, {"measurement": "mice active at the end of the study", "setting": "lupus-prone NZBWF1 mice [2]; SC route, all treatment groups", "result": "maintained mice active at the end of the study"}, {"measurement": "mice alive at 330 days", "setting": "lupus-prone NZBWF1 mice [2]; SC, 50 μg once every two weeks", "result": "more than 60%"}, {"measurement": "survival respect to control PBS-treated mice", "setting": "lupus-prone NZBWF1 mice [2]; SC, 50 μg once every two weeks", "result": "appreciably delay their survival; also recorded: best survival rate"}, {"measurement": "progress of the disease", "setting": "lupus-prone NZBWF1 mice [2]; SC, 50 μg, NZBWF1 mice", "result": "substantial slowing of the progress of the disease"}, {"measurement": "statistical analysis of Kaplan-Meier survival curves vs control PBS-treated group", "setting": "lupus-prone NZBWF1 mice [2]; any of the rC4BP(β−)-treated groups, n=6", "result": "no statistically significant differences"}, {"measurement": "survival, subcutaneous route compared with intraperitoneal route", "setting": "lupus-prone NZBWF1 mice [2]; doses of 5 μg and 50 μg, FIG. 6", "result": "higher"}, {"measurement": "semi-mature, anti-inflammatory phenotype conferred to LPS-matured MoDCs (immunomodulatory activity)", "setting": "[3]; MoDCs pre-incubated with 5 μg/ml protein, LPS challenge", "result": "able to confer an analogous semi-mature, anti-inflammatory phenotype"}, {"measurement": "CD83 and CD86 surface marker expression", "setting": "[3]; human MoDCs, 5 μg/ml C4BP isoform, LPS 5 μg/ml", "result": "restrain similarly CD83 and CD86 surface marker expression"}, {"measurement": "proteinuria by week 37", "setting": "lupus-prone NZBWF1 mice [4]; [5]", "result": "severe proteinuria indistinguishable from the PBS-treated control group"}, {"measurement": "delay in the onset of proteinuria", "setting": "lupus-prone NZBWF1 mice [4]; [5]", "result": 2, "unit": "week"}, {"measurement": "proteinuria by week 37", "setting": "lupus-prone NZBWF1 mice [4]; [6]", "result": "severe proteinuria indistinguishable from the PBS-treated control group"}, {"measurement": "delay in the onset of proteinuria", "setting": "lupus-prone NZBWF1 mice [4]; [6]", "result": 2, "unit": "week"}, {"measurement": "proteinuria level at the end of the study (week 37)", "setting": "lupus-prone NZBWF1 mice [4]; [7]", "result": "~300", "unit": "mg protein/kg"}, {"measurement": "delay in the onset of proteinuria", "setting": "lupus-prone NZBWF1 mice [4]; [7]", "result": 6, "unit": "weeks"}, {"measurement": "proteinuria by week 37 (end of the study)", "setting": "lupus-prone NZBWF1 mice [4]; SC, 50 μg once every two weeks", "result": "< 200", "unit": "mg/kg"}, {"measurement": "onset / development of proteinuria", "setting": "lupus-prone NZBWF1 mice [4]; mouse, in vivo, sc", "result": "significantly delayed; also recorded: strongest attenuation of proteinuria development"}, {"measurement": "efficacy, SC 50 μg/mouse vs IP 500 μg/mouse", "setting": "lupus-prone NZBWF1 mice [4]; same regimen, SLE mouse model", "result": "more effective than the intraperitoneal administration of 500 μg/mouse"}]}]}
